The labels stand for the following.
B1: Pistol ribozyme (parent)
chain: GGGUCGUUGUUCCAUAAUCGCGUGGAUAUGGCACGCAAGUUUCUACCGGGCACCGUAAAUGUCCGACUGGAGCCGUUCGGGCGGCUAUAAACAGACCUCAGGCCCGAAGCGUGGCGGCACCUGCCGCCGGUGGUAAAAAAGAUCGGAAGAGCACACGUCU

Variants of B1 are the subject of the data set. Description: aptazyme ON/OFF ratio, guanine; higher = stronger switching; co-transcriptional cleavage with and without guanine.
Regarding U7A U8C G9U U11G C12U C13G, the “aptazyme ON/OFF ratio” value stood at 1.14. On to U7A U8C G9U U11G C12U C13A, for which the “aptazyme ON/OFF ratio” value came out at 1.22. As to U7A U8C U10C U11A C12U C13U, the “aptazyme ON/OFF ratio” value was 1.27.

Take U7A U8C U10C U11A C12U C13A: the “aptazyme ON/OFF ratio” value is 1.21. As for U7A U8C U10C U11A C12U C13G, the figure is 1.19. For U7A U8C G9U U10G U11G C12G C13U, the “aptazyme ON/OFF ratio” value worked out at 1.29. Take U7A U8C G9U U10G U11G C12G C13G: the “aptazyme ON/OFF ratio” value stood at 1.22.

As for U7A U8C G9U U10G U11G C12G C13A, the “aptazyme ON/OFF ratio” value stood at 1.15. With U7A U8C U10C U11C C12U C13U, the “aptazyme ON/OFF ratio” value was found to be 1.07. In the case of U7A U8C U10C U11C C12U C13G it was 1.23. In the case of U7A U8C U10C U11C C12U C13A it was 1.06. In the case of U7A U8C U10C U11G C12A it was 1.2; in that of U7A U8C U10C U11G C12U, 1.3. Consider U7A U8C U10C U11G C12G, for which the “aptazyme ON/OFF ratio” value was 1.25.

With U7A U8C G9U U11A C12A C13A, the “aptazyme ON/OFF ratio” value was found to be 1.42. In the case of U7A U8C G9U U11A C12A C13G it was 1.24. As for U7A U8C G9U U11A C12A C13U, the figure is 1.33; as for U7A U8C G9U U11A C12G C13G, 1.22. On to U7A U8C G9U U11A C12G C13U, for which the “aptazyme ON/OFF ratio” value came to 1.2.

Take U7A U8C G9U U11A C12G C13A: the “aptazyme ON/OFF ratio” value amounted to 1.14.

In the case of U7A U8C U11G C12G C13G, the “aptazyme ON/OFF ratio” value is 1.1.

As to U7A U8C U11G C12G C13U, the “aptazyme ON/OFF ratio” value turned out to be 1.11. In the case of U7A U8C U11G C12G C13A, the “aptazyme ON/OFF ratio” value turned out to be 1.04.

U7A U8C U10A U11C C13G: the “aptazyme ON/OFF ratio” value amounted to 1.05. Regarding U7A U8C U10A U11C C13U, the “aptazyme ON/OFF ratio” value came out at 1.02. U7A U8C U10A U11C C13A: the “aptazyme ON/OFF ratio” value came to 1.05. In the case of U7A U8C G9U U10G U11G C12A C13A, the “aptazyme ON/OFF ratio” value was 1.12. Regarding U7A U8C G9U U10G U11G C12A C13U, the “aptazyme ON/OFF ratio” value came to 1.37. For U7A U8C G9U U10G U11G C12A C13G, the “aptazyme ON/OFF ratio” value was found to be 1.11. Regarding U7A U8C U10G C12A, the “aptazyme ON/OFF ratio” value is 1.21.

As for U7A U8C U10G C12U, the “aptazyme ON/OFF ratio” value came to 1.27. For U7A U8C U10G C12G, the “aptazyme ON/OFF ratio” value worked out at 1.12. With U7A U8C U10G C12U C13A, the “aptazyme ON/OFF ratio” value came to 1.21.

Consider U7A U8C U10G C12U C13U, for which the “aptazyme ON/OFF ratio” value came out at 1.34. U7A U8C U10G C12U C13G: the “aptazyme ON/OFF ratio” value was 1.14. U7A U8C U10C C12G C13G: the “aptazyme ON/OFF ratio” value came to 1.22. For the variant U7A U8C U10C C12G C13A, the “aptazyme ON/OFF ratio” value came to 1.34. On to U7A U8C U10C C12G C13U, for which the “aptazyme ON/OFF ratio” value stood at 1.41. U7A U8G: the “aptazyme ON/OFF ratio” value came out at 1.13. Take U7A U8C U10A C12G C13U: the “aptazyme ON/OFF ratio” value is 1.26. In the case of U7A U8C U10A C12G C13A it was 1.09; in that of U7A U8C U10A C12G C13G, 1.23; in that of U7A U8C U10G C13G, 1.24.

As to U7A U8C U10G C13U, the “aptazyme ON/OFF ratio” value worked out at 1.31. Regarding U7A U8C U10G C13A, the “aptazyme ON/OFF ratio” value turned out to be 1.4.

Regarding U7A U8C U10G U11G C12U C13G, the “aptazyme ON/OFF ratio” value amounted to 1.23.

With U7A U8C U10G U11G C12U C13U, the “aptazyme ON/OFF ratio” value was found to be 1.24.

Turning to U7A U8C U10G U11G C12U C13A, the “aptazyme ON/OFF ratio” value came to 1.23. On to U7A U8C U10G U11A C12A C13U, for which the “aptazyme ON/OFF ratio” value amounted to 1.32. For the variant U7A U8C U10G U11A C12A C13A, the “aptazyme ON/OFF ratio” value is 1.28.

U7A U8C U10G U11A C12A C13G: the “aptazyme ON/OFF ratio” value came to 1.15.

As to U7A U8C U10C U11G C12A C13G, the “aptazyme ON/OFF ratio” value stood at 1.28. Regarding U7A U8C U10C U11G C12A C13U, the “aptazyme ON/OFF ratio” value stood at 1.18.

In the case of U7A U8C U10C U11G C12A C13A, the “aptazyme ON/OFF ratio” value was 1.33. Regarding U7A U8C U10A U11G C12U C13U, the “aptazyme ON/OFF ratio” value turned out to be 1.26.

U7A U8C U10A U11G C12U C13A: the “aptazyme ON/OFF ratio” value is 1.28. In the case of U7A U8C U10A U11G C12U C13G it was 1.16; in that of U7A U8C U10A U11A C13G, 1.29; in that of U7A U8C U10A U11A C13U, 1.12. For the variant U7A U8C U10A U11A C13A, the “aptazyme ON/OFF ratio” value is 1.2. Consider U7A U8C U10G U11G C12G, for which the “aptazyme ON/OFF ratio” value worked out at 1.04.

For the variant U7A U8C U10G U11G C12U, the “aptazyme ON/OFF ratio” value was determined as 1.34. In the case of U7A U8C U10G U11G C12A, the “aptazyme ON/OFF ratio” value is 1.25. In the case of U7A U8C U10G C12G C13U it was 1.19; in that of U7A U8C U10G C12G C13G, 1.11; in that of U7A U8C U10G C12G C13A, 1.09.

With U7A U8C G9U U10G U11C C13A, the “aptazyme ON/OFF ratio” value amounted to 1.17. With U7A U8C G9U U10G U11C C13G, the “aptazyme ON/OFF ratio” value turned out to be 1.08. As to U7A U8C G9U U10G U11C C13U, the “aptazyme ON/OFF ratio” value was 1.03. In the case of U7A U8C G9U U10G U11G C12U C13G, the “aptazyme ON/OFF ratio” value came to 1.11. With U7A U8C G9U U10G U11G C12U C13A, the “aptazyme ON/OFF ratio” value turned out to be 1.07. Take U7A U8C G9U U10G U11G C12U C13U: the “aptazyme ON/OFF ratio” value was 1.16. As for U7A U8C U10C U11C C12G, the “aptazyme ON/OFF ratio” value turned out to be 1.19.

On to U7A U8C U10C U11C C12A, for which the “aptazyme ON/OFF ratio” value turned out to be 1.14. With U7A U8C U10C U11C C12U, the “aptazyme ON/OFF ratio” value worked out at 1.04. Consider U7A U8C U10G U11G, for which the “aptazyme ON/OFF ratio” value is 1.4. In the case of U7A U8C U10G U11A, the “aptazyme ON/OFF ratio” value came to 1.14. In the case of U7A U8C U10G U11C, the “aptazyme ON/OFF ratio” value was 1.74. For the variant U7A U8C U10G, the “aptazyme ON/OFF ratio” value stood at 1.47. For U7A U8C U10C, the “aptazyme ON/OFF ratio” value was found to be 2.24. Turning to U7A U8C U10A, the “aptazyme ON/OFF ratio” value worked out at 1.06.

As to U7A U8C U11A C12A, the “aptazyme ON/OFF ratio” value was 1.32. Turning to U7A U8C U11A C12G, the “aptazyme ON/OFF ratio” value was found to be 1.16. As for U7A U8C U11A C12U, the “aptazyme ON/OFF ratio” value stood at 1.23.

The values above are taken from the RNAGym collection of RNA variant scans (doi:10.1021/acssynbio.7b00057).
